Biological target: the molecule itself
Assay: bead aggregation assay; streptavidin MonoMag beads (1 micron) coated with biotin-tagged PTPµ21-365avi; PBS + 0.01% Tween 20; room temperature; rotation at 150 rpm for 30 min; aggregates over 50 µm^2 counted by microscopy

B1: PTPµ21-365avi (fragment of PTPµ containing the MAM, Ig, and first FNIII repeat) (domain or fragment, human, UniProt P28827 21-365, looked up)
chain: ETFSGGCLFDEPYSTCGYSQSEGDDFNWEQVNTLTKPTSDPWMPSGSFMLVNASGRPEGQRAHLLLPQLKENDTHCIDFHYFVSSKSNSPPGLLNVYVKVNNGPLGNPIWNISGDPTRTWNRAELAISTFWPNFYQVIFEVITSGHQGYLAIDEVKVLGHPCTRTPHFLRIQNVEVNAGQFATFQCSAIGRTVAGDRLWLQGIDVRDAPLKEIKVTSSRRFIASFNVVNTTKRDAGKYRCMIRTEGGVGISNYAELVVKEPPVPIAPPQLASVGATYLWIQLNANSINGDGPIVAREVEYCTASGSWNDRQPVDSTSYKIGHLDPDTEYEISVLLTRPGEGGTGS
modifications: biotin (biotin-tagged)
notes: PTPµ, aa 21-365: MAM domain, Ig domain and first FNIII repeat; held on streptavidin beads by the biotin on the avi tag; the species is stated only for the full-length protein and by the UniProt entry; also called extracellular fragment of PTPmu; source: bacterially expressed
- binding result: binds

From article PMC10001486, “Artificial Intelligence-Based Computational Screening and Functional Assays Identify Candidate Small Molecule Antagonists of PTPmu-Dependent Adhesion” (International Journal of Molecular Sciences, 2023)
